# Assay results reported in the supplement of paper PMC10567573.
# B1: HDAC6 (parent)
# chain: QEGLLDRCVSFQARFAEKEELMLV
# Variants of: B1
# Assay: protein stability index of a GFP-peptide fusion (GPS, HEK-293T) (PSI 1-6); higher = more stable
# Details: c terminus: a fixed tail appended
# 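Note: lentivirally expressed fusions sorted by FACS into six bins by GFP to DsRed ratio, PSI derived from sequencing read proportions per bin multiplied by bin number.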
row,Variant,protein stability index
1,QEALLDRCVSFQARFAEKEELMLV [G3A],1.89
2,QECLLDRCVSFQARFAEKEELMLV [G3C],2.3
3,QEDLLDRCVSFQARFAEKEELMLV [G3D],2.12
4,QEELLDRCVSFQARFAEKEELMLV [G3E],2.54
5,QEFLLDRCVSFQARFAEKEELMLV [G3F],1.06
6,QEHLLDRCVSFQARFAEKEELMLV [G3H],2.12
7,QEILLDRCVSFQARFAEKEELMLV [G3I],1.95
8,QEKLLDRCVSFQARFAEKEELMLV [G3K],2.16
9,QELLLDRCVSFQARFAEKEELMLV [G3L],1.64
10,QEMLLDRCVSFQARFAEKEELMLV [G3M],2.04
11,QENLLDRCVSFQARFAEKEELMLV [G3N],2.93
12,QEPLLDRCVSFQARFAEKEELMLV [G3P],1.78
13,QEQLLDRCVSFQARFAEKEELMLV [G3Q],2.01
14,QERLLDRCVSFQARFAEKEELMLV [G3R],2.01
15,QESLLDRCVSFQARFAEKEELMLV [G3S],2.19
16,QETLLDRCVSFQARFAEKEELMLV [G3T],1.97
17,QEVLLDRCVSFQARFAEKEELMLV [G3V],1.4
18,QEWLLDRCVSFQARFAEKEELMLV [G3W],1.79
19,QEYLLDRCVSFQARFAEKEELMLV [G3Y],1.31
20,QEGALDRCVSFQARFAEKEELMLV [L4A],1.62
21,QEGCLDRCVSFQARFAEKEELMLV [L4C],2.73
22,QEGDLDRCVSFQARFAEKEELMLV [L4D],1.75
23,QEGELDRCVSFQARFAEKEELMLV [L4E],1.85
24,QEGFLDRCVSFQARFAEKEELMLV [L4F],2.47

row,Variant,protein stability index
1,QEGGLDRCVSFQARFAEKEELMLV [L4G],1.43
2,QEGHLDRCVSFQARFAEKEELMLV [L4H],1.44
3,QEGILDRCVSFQARFAEKEELMLV [L4I],1.79
4,QEGKLDRCVSFQARFAEKEELMLV [L4K],1.94
5,QEGMLDRCVSFQARFAEKEELMLV [L4M],2.19
6,QEGNLDRCVSFQARFAEKEELMLV [L4N],2.06
7,QEGPLDRCVSFQARFAEKEELMLV [L4P],2.04
8,QEGQLDRCVSFQARFAEKEELMLV [L4Q],1.99
9,QEGRLDRCVSFQARFAEKEELMLV [L4R],1.79
10,QEGSLDRCVSFQARFAEKEELMLV [L4S],1.75
11,QEGTLDRCVSFQARFAEKEELMLV [L4T],1.91
12,QEGVLDRCVSFQARFAEKEELMLV [L4V],1.9
13,QEGWLDRCVSFQARFAEKEELMLV [L4W],1.5
14,QEGYLDRCVSFQARFAEKEELMLV [L4Y],2.01
15,QEGLADRCVSFQARFAEKEELMLV [L5A],1.87
16,QEGLCDRCVSFQARFAEKEELMLV [L5C],1.34
17,QEGLDDRCVSFQARFAEKEELMLV [L5D],2.62
18,QEGLEDRCVSFQARFAEKEELMLV [L5E],3.01
19,QEGLFDRCVSFQARFAEKEELMLV [L5F],1.33
20,QEGLGDRCVSFQARFAEKEELMLV [L5G],1.71
21,QEGLHDRCVSFQARFAEKEELMLV [L5H],1.67
22,QEGLIDRCVSFQARFAEKEELMLV [L5I],2.07
23,QEGLKDRCVSFQARFAEKEELMLV [L5K],1.72
24,QEGLMDRCVSFQARFAEKEELMLV [L5M],1.73

row,Variant,protein stability index
1,QEGLNDRCVSFQARFAEKEELMLV [L5N],2.36
2,QEGLPDRCVSFQARFAEKEELMLV [L5P],1.83
3,QEGLQDRCVSFQARFAEKEELMLV [L5Q],1.56
4,QEGLRDRCVSFQARFAEKEELMLV [L5R],1.78
5,QEGLSDRCVSFQARFAEKEELMLV [L5S],1.9
6,QEGLTDRCVSFQARFAEKEELMLV [L5T],1.87
7,QEGLVDRCVSFQARFAEKEELMLV [L5V],2.06
8,QEGLWDRCVSFQARFAEKEELMLV [L5W],1.58
9,QEGLYDRCVSFQARFAEKEELMLV [L5Y],1.79
10,QEGLLARCVSFQARFAEKEELMLV [D6A],2.45
11,QEGLLCRCVSFQARFAEKEELMLV [D6C],1.78
12,QEGLLERCVSFQARFAEKEELMLV [D6E],1.84
13,QEGLLFRCVSFQARFAEKEELMLV [D6F],1.54
14,QEGLLGRCVSFQARFAEKEELMLV [D6G],1.74
15,QEGLLHRCVSFQARFAEKEELMLV [D6H],2.09
16,QEGLLIRCVSFQARFAEKEELMLV [D6I],1.69
17,QEGLLKRCVSFQARFAEKEELMLV [D6K],2.69
18,QEGLLLRCVSFQARFAEKEELMLV [D6L],1.9
19,QEGLLMRCVSFQARFAEKEELMLV [D6M],1.87
20,QEGLLNRCVSFQARFAEKEELMLV [D6N],2.37
21,QEGLLPRCVSFQARFAEKEELMLV [D6P],1.38
22,QEGLLQRCVSFQARFAEKEELMLV [D6Q],1.87
23,QEGLLRRCVSFQARFAEKEELMLV [D6R],2
24,QEGLLSRCVSFQARFAEKEELMLV [D6S],2.13

row,Variant,protein stability index
1,QEGLLTRCVSFQARFAEKEELMLV [D6T],1.64
2,QEGLLVRCVSFQARFAEKEELMLV [D6V],2.06
3,QEGLLWRCVSFQARFAEKEELMLV [D6W],2.38
4,QEGLLYRCVSFQARFAEKEELMLV [D6Y],1.95
5,QEGLLDACVSFQARFAEKEELMLV [R7A],2.74
6,QEGLLDCCVSFQARFAEKEELMLV [R7C],2.32
7,QEGLLDDCVSFQARFAEKEELMLV [R7D],1.69
8,QEGLLDECVSFQARFAEKEELMLV [R7E],1.93
9,QEGLLDFCVSFQARFAEKEELMLV [R7F],2.59
10,QEGLLDGCVSFQARFAEKEELMLV [R7G],2.17
11,QEGLLDHCVSFQARFAEKEELMLV [R7H],1.7
12,QEGLLDICVSFQARFAEKEELMLV [R7I],2.91
13,QEGLLDKCVSFQARFAEKEELMLV [R7K],1.43
14,QEGLLDLCVSFQARFAEKEELMLV [R7L],2.69
15,QEGLLDMCVSFQARFAEKEELMLV [R7M],1.92
16,QEGLLDNCVSFQARFAEKEELMLV [R7N],2.13
17,QEGLLDPCVSFQARFAEKEELMLV [R7P],2.56
18,QEGLLDQCVSFQARFAEKEELMLV [R7Q],1.94
19,QEGLLDSCVSFQARFAEKEELMLV [R7S],3.14
20,QEGLLDTCVSFQARFAEKEELMLV [R7T],1.73
21,QEGLLDVCVSFQARFAEKEELMLV [R7V],1.71
22,QEGLLDWCVSFQARFAEKEELMLV [R7W],1.83
